Results: patent US20240262892A1 (NANJING VAZYME BIOTECH, published 2024)
Residue numbers refer to the chain shown, from its start.

B1: Antibody 8-1 (antibody, V domains shown)
VH: EVQLVESGGGLIQPGGSLRLSCAASGLTVSSNYMTWVRQAPGKGLEWVSVIYSGGSTFYAESVKGRFTISRDNSKNTLYLQMNSLRAEDTAVYYCARDLVVYGMDVWGQGTTVIVSS
VL: DIQLTQSPSFLSASVGDRVTITCRASQGISSDLAWYQQKPGKAPKLLIYAASTLQSGVPSRFSGSGSGTEFTLTISSLQPEDFATYYCQQLNSHPLAFGPGTKVDIK
B2: Antibody 9-8 (antibody, V domains shown)
VH: EVQLVESGGGVVQPGGSLRLSCAASGFTFDDYAIHWVRQAPGKGLEWVSLISGDGGTTYYADFVKGRFTISRDNSKNSLYLQMNSLRTEDTALYYCAKDIPVCSSTICYRFTARLHGMDVWGQGTTVTVSS
VL: DIQMTQSPSSLSASVGDRVTITCRASQSISSYLNWYQQKPGKAPKLLIYTASSLQSGVPSRFSGSGSGADFTLTISSLQPEDFATYYCQQRYSTPLTFGGGTKVEIK
B3: Antibody 14-4 (antibody, V domains shown)
VH: QMQLVQSGPEVKKPGTSVKVSCKASGFTFTTSAVQWVRQARGQRLEWIGWIVVGSGNTNYAQKFQERVTITRDMSTSTGYMELSSLRSEDTAVYYCAAPNCNRTSCDDGFDIWGQGTMVTVSS
VL: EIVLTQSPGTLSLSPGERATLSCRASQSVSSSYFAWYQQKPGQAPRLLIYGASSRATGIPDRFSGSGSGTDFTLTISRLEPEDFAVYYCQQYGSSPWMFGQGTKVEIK
B4: Antibody 9-1 (antibody, V domains shown)
VH: QLQLQESGPGLVKPSETLSLTCTVSGGSISSSTYYWAWIRQPPGKGLEWIGSIYYSGSTYYNPSLKSRVTISVHTSKNQFSLKLTSVTAADTAVYYCARSMGLHDYWGQGTLVTVSS
VL: DIQMTQSPSSLSASVGDRVTITCRASQGIGNSLAWYQQKPGRAPKFLLYAASTLESGVPSRFSGSGSGTHFTLTISSLQPEDFATYFCQQYYSTPPYTFGQGTRLEIK
B5: Antibody 29-2 (antibody, V domains shown)
VH: QITLKESGPTLVKPTQTLTLTCTFSGFSLSSSGMGVGWIRQPPGKALEWLALIYWNDDKRYSPSLKSRLTITKDTSKNQVVLTLTNMDPVDTATYYCAHTTLYNNCPFDYWGQGTLVTVSS
VL: SYVLTQPPSVSVAPGKTARITCGGNNIGSYSVHWYQQRPGQAPVLVIYYDSDRPSGIPERFSGSNSGNTATLTISRVEAGDEADYYCQVWDNSSNHPWVFGGGTKLTVL
B6: Antibody 8-3 (antibody, V domains shown)
VH: EVQLVESGGGLVQPGGSLRLSCAASGITVSSNYMNWVRQAPGKGLDWVSVIYSGGSTFYADSVKGRFIISRDNSKNTLFLQMDSLRVEDTAVYYCARDLVVRGVDIWGQGTMVTVSS
VL: DIQLTQSPSFLSASVGDRVTITCRASQGISSDLAWYHQKPGKAPKLLIYAASTLQSGVPSRFSGSGSGTEFTLTISSLQPEDFATYYCQQLNSYRGLIFGGGTKVEIK
B7: Antibody 34-2 (antibody, V domains shown)
VH: EVQLVESGGGLVQPGRSLRLSCAASGFTFDESAMHWVRQAPGEGLEWVSGISWNSGRIAYADSVRGRFTISRDNAKNSLYLQMNSLRAEDTALYFCALTTSGWFSFDYWGQGTLVTVSS
VL: SYVLTQPPSVSVAPGKTARITCGGNNIGSKSVHWYQQKPGQAPVPVIYYDSDRPSGIPERFSGSNSGNTATLTISRVEVGDEADYYCQVWDSSSDRAVFGGGTTLTVL
B8: Antibody 29-13 (antibody, V domains shown)
VH: QITLKESGPTLVKPTQTLTLTCTFSGFSLSTSGVGVGWIRQPPGKALEWLALIYWDDDKRYSPSLKSRLSITKDTSKNQVALTVTNMDPVDTATYYCAHRRPGPGSYYFDYWGQGTLVTVSS
VL: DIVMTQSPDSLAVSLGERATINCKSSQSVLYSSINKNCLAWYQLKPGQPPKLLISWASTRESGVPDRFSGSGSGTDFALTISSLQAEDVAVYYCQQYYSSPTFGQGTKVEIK
B9: Antibody 12-9 (antibody, V domains shown)
VH: EVQLVESGGGLVKPGGSLRLSCAASEFTFSSYSMNWVRQAPGKGLEWVSSISSSGSDIYYADSVKGRFTISRDNAKKSLYLQMNSLRVEDTAVYYCATNGGAHSSTWSFYGMDVWGQGTTVTVSS
VL: SYELTQPPSVSVSPGQTATITCSGDKLGDKYACWYQQRPGQSPVLVIYQDSKRPSGIPERFSGSNSGNTATLTIGGTQAMDEAAYFCQAWDSNTGVFGGGTKLTVL
B10: Antibody 12-17 (antibody, V domains shown)
VH: EVQLVESGGGLVKPGGSLRLSCAASGFTLNSYSMNWVRQAPGKGLEWVSSISSTSSDIYYADSVKGRFTISRDNAKNSVDLQMNSLRAEDTAVYYCATNGGAHRNTWSFYGMDVWGQGTTVTVSS
VL: B9 VL with T19S, C33S, R38K, S51T, A70V, G75S, A84D, F86Y, N93S
B11: Antibody 14-8 (antibody, V domains shown)
VH: QVQLVQSGAEVKKPGASVKVSCKASGYTFTGYYIHWVRQAPGKGPEWMGWINPNSGGTNYAQKFQGWVTMTRDTSISAAYMELSRLKFDDTAIYYCAKSGEKVGADLGYYDYGMDLWGQGTTVTVSS
VL: SYELTQPPSVSVSPGQTARITCSGDALPKQYAYWYQQKPGQAPVMVIYKDTERPSGIPERFSGSSSGTTVTLTISGVQAEDEADYNCQSVDSSGAYVVFGGGTKLTVL
B12: Antibody 12-11 (antibody, V domains shown)
VH: QVQVVQSGAEVKKPGASVKVSCKVSGYTLIEISIHWVRQAPGKGLEWMGGFDPEAGETIYAQKFQGRVTMTEDTSTDTAYMEVSSLRSEDTAVYYCATGPAIAAAETNWFDLWGQGTLVTVSS
VL: QSALTQPASVSGSPGQSITISCTGTSSDVGSYNYVSWYQQHPGKAPKLMIYDVTKRPSGVPDRFSGSKSGNTASLTISGLQAEDEADYYCSSYTSSSTWVFGGGTKLTVL
B13: Antibody 12-13 (antibody, V domains shown)
VH: QVQVVQSGAEVKKPGASVKVSCKVSGYTLTELSIHWVRQTPGKGLEWMGGFDPEDGETIYAQWLQGRVTMTEDTSTDIAYMELSSLRHEDTAVYYCATGPAIAGAGTNWFDPRGQGTLVIVSS
VL: B12 VL with S31G, T54S, S91T, S95N
B14: Antibody 13-17 (antibody, V domains shown)
VH: QDQLVQSGAEVKKPGASVKVSCKVSGYTLPELSLHWVRQPPGKGLEWMGGFDPEDGETIYAQKFQGRVTMTEDTSTDTAYMELSSLRSEDTAVYYCAASTPMGGHTDWLDPWGQGTLVTVSS
VL: QSVLTQPPSVSAAPGQKVTISCSGSSSNIGNNYVSWYQQLPGTAPKLLIYDNNKRPSGIPDRFSGSKSGTSATLGITGLQTGDEADYYCGTWDSSLSAGVFGGGTKLTVL
B15: Antibody 5-10 (antibody, V domains shown)
VH: EVQLLESGGGLVQPGGSLRLSCAASGFTFSSYAMSWVRQAPGKGLEWVSAIVGSGGSTYYADSVKGRFIISRDNSKNTLYLQMNSLRAEDTAVYYCAKSLIYGHYDILTGAYYFDYWGQGTLVTVSS
VL: DIQMTQSPSSVSASVGDRVTIPCRASQGIGNWLAWYQQKPGKAPKLLIYAASSLQSGVPSRFSGSGSGTDFTLTISSLQPEDFATYYCQQANSFPPFGQGTRLEIK

molecular target: T1, SARS-CoV-2 RBD (receptor binding domain of spike protein of SARS-CoV-2) (SARS-CoV-2, UniProt P0DTC2 319-541); assay: not given

B1 was tested, and the Kd was 0.047 nM.

molecular target: T1, SARS-CoV-2 RBD (receptor binding domain …); assay: HTRF ACE2/RBD binding assay, competition with ACE2

B2 showed an IC50 of 4.14 µg/mL.

molecular target: T1, SARS-CoV-2 RBD (receptor binding domain …); assay: HTRF ACE2/RBD binding assay (665/620 ratio); blocked ligand: ACE2

B3 and B1 are the same in IC50: 0.103 µg/mL for the first, 0.103 µg/mL for the second.

B4 and B5 are within 1.5-fold of each other in IC50: 0.105 µg/mL for the first, 0.117 µg/mL for the second.

B6 and B7 are within 1.5-fold of each other in IC50: 0.109 µg/mL for the first, 0.115 µg/mL for the second.

With B8 the IC50 was 0.0954 µg/mL.

molecular target: T2, SARS-CoV-2 S1 protein NTD (N-terminal domain of spike protein of SARS-CoV-2) (SARS-CoV-2, UniProt P0DTC2 14-305); assay: biolayer interferometry, ForteBio Octet RED96e, NTD 250 nM to 7.81 nM, 1:1 model
T2 construct: also called S1-NTD; NTD of S1 subunit

Compared with B9, B10 is 3-fold lower in Kd: 16.7 nM for the first, 5.49 nM for the second.

B11 and B12 are within 1.5-fold of each other in Kd: 7.08 nM for the first, 5.82 nM for the second.

B13 and B14 are within 1.5-fold of each other in Kd: 5.61 nM for the first, 4.39 nM for the second.

molecular target: T1, SARS-CoV-2 RBD (receptor binding domain …); assay: not given; remark: another data set of the same source

Going from B3 to B2, the Kd rises from 2.62 nM to 4.75 nM (1.8-fold). The first binds more tightly here.

Compared with B4, B15 is 5.2-fold higher in Kd: 0.835 nM for the first, 4.32 nM for the second.

Going from B5 to B6, the Kd rises from 0.392 nM to 1.55 nM (4-fold). The first binds more tightly here.

Going from B7 to B8, the Kd rises from 0.217 nM to 1.28 nM (5.9-fold). The first binds more tightly here.

molecular target: T3, SARS-CoV-2 S1 (S1 subunit of spike protein of SARS-CoV-2) (SARS-CoV-2, UniProt P0DTC2 14-685); assay: ELISA, SARS-CoV-2 S1 coated on the plate, anti-human IgG-HRP, OD450
T3 construct: domain: S1; also called SARS-CoV-2 Spike protein S1 domain

B9 and B10 are within 1.5-fold of each other in “EC50 (read off the curve)” value: ~0.03 µg/mL for the first, ~0.04 µg/mL for the second.

B11 and B12 are the same in “EC50 (read off the curve)” value: ~0.1 µg/mL for the first, ~0.1 µg/mL for the second.

B13 and B14 are within 1.5-fold of each other in “EC50 (read off the curve)” value: ~0.07 µg/mL for the first, ~0.1 µg/mL for the second.

molecular target: T1, SARS-CoV-2 RBD (receptor binding domain …); assay: ELISA, SARS-CoV-2 RBD coated on the plate, anti-human IgG-HRP, OD450

Going from B3 to B1, the EC50 rises from 0.0162 µg/mL to 0.0506 µg/mL (3.1-fold).

First: B2
Second: B4
The EC50 of the first is 3.6-fold lower: 0.0243 µg/mL for the first, 0.0886 µg/mL for the second.

B15 and B5 are within 1.5-fold of each other in EC50: 0.0269 µg/mL for the first, 0.0372 µg/mL for the second.

B6 and B7 are within 1.5-fold of each other in EC50: 0.0483 µg/mL for the first, 0.0493 µg/mL for the second.

Work on B8 yielded an EC50 of 0.00473 µg/mL.

molecular target: T2, SARS-CoV-2 S1 protein NTD (N-terminal …); assay: ELISA, S1-NTD coated on the plate, antibody at one concentration, anti-human IgG-HRP

Going from B9 to B10, the OD450 rises from 3.76 to 3.95.

Compared with B11, B12 is lower in OD450: 3.98 for the first, 3.93 for the second.

First: B13
Second: B14
The OD450 of the first is higher: 3.96 for the first, 3.91 for the second.

molecular target: T1, SARS-CoV-2 RBD (receptor binding domain …); assay: ELISA, S1-RBD coated on the plate, antibody at one concentration, anti-human IgG-HRP

First: B9
Second: B10
The OD450 of the first is higher: 0.0764 for the first, 0.0641 for the second.

Compared with B11, B12 is lower in OD450: 0.0693 for the first, 0.0638 for the second.

Compared with B13, B14 is higher in OD450: 0.06 for the first, 0.0815 for the second.
